Data taken from paper PMC4338613.

Assays:
Assay in all cases: co-IP
[1] = target: LAP-tagged FUS/TLS R495X (human) (UniProt P35637)
[2] = target: LAP-tagged FUS/TLS P525L (human) (UniProt P35637)
[3] = target: LAP-tagged FUS/TLS R521G (human) (UniProt P35637)

Measured: fold reduction of association against wild-type FUS/TLS

Sm-B/D (components of Sm core)
5 fold: all assays above
